Experiment: yeast display, Sf9 membrane polyspecificity reagent, FACS + sequencing; frameworks hold sequencing errors
Summary of the method: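 Using colony PCR, genes from sorted yeast display clones were amplified, then sequenced on MiSeq at 2 × 250 and filtered by CDR length. The clones had been stained with 10% biotinylated, detergent-solubilized Sf9 membrane reagent for 1 hour at 4 °C and sorted by FACS into low and high (top ~1%) gates on anti-HA and streptavidin fluorescence. Polyreactivity labels come from the gate of origin.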
For “QVQLVESGGGLVQARGSLRLSWAASGIIFALYAMGWSRQAPGKERELVAAISSDGITKYADSVKGRFTISRDNAKNPDYLQMNSLKPEDTAVYYCAADGYPGDYDYWGQGTQVTVSS”, the “polyreactivity (PSR sort gate)” value was “low polyreactivity”. In the case of “QVQLVESGGGLVQARVSLRLSCAASGITFRYYAMGWYRQAPGKERELVAAITRGGGSTYYADSVKGRFTISRDNAKNTVYLQMNSLKPEDTAVYYCAAAGSRYAWGYGYWGQGTQVTVSS”, the “polyreactivity (PSR sort gate)” value is reported as “high polyreactivity”. In the case of “QVQLVESGGGLVQAVGRLRLSCAASGITLSLYAMGWYRQATGKETELVAAISRGGGRTYYADSVKGRFTISRDNAKNTVYLQMNSLKPEDTAVYYCNKGRNPGPAYFASVDYWGQGTQVTVSS”, the “polyreactivity (PSR sort gate)” value is reported as “high polyreactivity”. With “QVQLVESGGGLVQAVGRLRLSCAASGRTFYYNGMGWYRQAPGKERELVAAISSGGTTSYADSVKGRFTISRDNAKNTVYLQMNSLKPEDTAVYYCNVYDKAPAYDYWGQGTQVTVSS” the “polyreactivity (PSR sort gate)” value was “low polyreactivity”. For “QVQLVESGGGLVQAVGSHRLICAASGSIFPYYAMGWYRQAPGKERELVATITYRGGSTNYADSVKGRFTISRDNAKNTVYLQMNSLKPEDTAVYYCAAEYYSIRYGPHSIEVYGMDYWGQGTHVTVSS”, the “polyreactivity (PSR sort gate)” value was “low polyreactivity”. With “QVQLVESGGGLVQAVGSLRLSCAASGFTFQHYAMGWYRQAPGNERELVAVISFSGGRTYYADSVKGRFTISRDNAKNTVYLQMNSLKPEDTAVYYCAAVFWDDYGKYYYWGLGTQVTVSS” the “polyreactivity (PSR sort gate)” value was “high polyreactivity”. In the case of “QVQLVESGGGLVQAVGSLRLSCAASGLTFYPNAMGWYRQAPGKERQFVDSISISGRTYYADSVKGRFTISRDNAKNTVYLQMNSLKPEDTAVYYCAARYVRSGLYRKYDYWGQGTQVTVSS”, the “polyreactivity (PSR sort gate)” value is reported as “high polyreactivity”. In the case of “QVQLVESGGGLVQAVGSLRLSCAASGLTFYSNAMGWYRQPHGKERELVATISQDGGRTYADSVKGRFTISRDNAKNTVYLQMNSLKPEDTAVYYCAADYSGNYDFGYWGQGTQVTVSS”, the “polyreactivity (PSR sort gate)” value is reported as “low polyreactivity”. In the case of “QVQLVESGGGLVQAVGSLRLSCAASGRIFGYYDMGWYRQAPGKERELVAAINYDGGSTYYADSVKGRFTISRDNAKNTVYLQMNSLKPDDTAVYYCNKDGRVYLDHDYWGQGTQVTVSS”, the “polyreactivity (PSR sort gate)” value is reported as “low polyreactivity”. In the case of “QVQLVESGGGLVQAVGSLRLSCAASGRIFNYYAMGWYRQAPGKEREMVAGISGYGTSTYYADSVKGRFTISRDNAKNTVYLQMNSLKPEDTAVYYCAADVFRDDVWLDYWGHGTQVTVSS”, the “polyreactivity (PSR sort gate)” value is reported as “low polyreactivity”. In the case of “QVQLVESGGGLVQAVGSLRLSCAASGRIFRYNAMGWYRQAPVKERELVASITSAGSTNYADSVKGRFTISRDNAKNTVYLQMNSLKPEDTAVYYCAARAQSPPYGYWGQGTQVTVSS”, the “polyreactivity (PSR sort gate)” value is reported as “high polyreactivity”. With “QVQLVESGGGLVQAVGSLRLSCAASGRTFARNAMGWYRQAPGKERELVAVITSGTSTYYADSVKGRFTISRDYAKNTVYLQMNSLKPEDTAVYYCAARSPGRAGIYYSWGQGTQVTVSS” the “polyreactivity (PSR sort gate)” value was “high polyreactivity”. With “QVQLVESGGGLVQAVGSLRLSCAASGRTFNRYGMGWYRQAPAKEMELVAAIRWSGTTTYYADSVKGRFTISRDNAKNTVYLQMNSQKPEDTAVYYCAAGTNVGRYGYYYWGQGTQVTVSS” the “polyreactivity (PSR sort gate)” value was “high polyreactivity”. With “QVQLVESGGGLVQAVGSLRLSCAASGRTFWANTMGWYRQAPGKERELVAAISKRGGSTYYADSVKGRFTISRDNAKNTVYLQMNSLKPEDTAVYYCNADKSGWYDYWGQGTQVTVSS” the “polyreactivity (PSR sort gate)” value was “high polyreactivity”. For “QVQLVESGGGLVQAVGSLRLSCAASGRTIAGYTMGWYRQARGQERELVAAISGRGGSTYYADSVKGRYTISRDNAKNTVYLQMNSLKPEDTAVYYCAAYTQGYWGRGRYGYCGQGTQVTVSS”, the “polyreactivity (PSR sort gate)” value was “high polyreactivity”. In the case of “QVQLVESGGGLVQAVGSLRLSCAASGRTSPRNAMGWYRQAPGKERELVAAINRTGGTTYYSDSVKGRFTISRDNAKNTVYLQMNSLIPEDTAVYYCAADVWVSTSGDWFRYDYWGQGTQVTVSS”, the “polyreactivity (PSR sort gate)” value is reported as “high polyreactivity”. With “QVQLVESGGGLVQAVGSLRLSCAASGSIFPDNAMGWYRQAPRKERELVASISWSGGSTYYADSVKGRFTISRDNAKNPVYLQRNSLKPEDTAVYYCARTYYWYLRVDYWGQGTQVTVSS” the “polyreactivity (PSR sort gate)” value was “low polyreactivity”. In the case of “QVQLVESGGGLVQAVGSLRLSCAASGSIFTPYAMGWYRQAPGKERELVAAISGSGGSTRYADSVKGRFTISRDNATNTVYLQMNSLKPEDTAVYYCAADRYTYIWYHIYDYWGQGTQVTVSS”, the “polyreactivity (PSR sort gate)” value is reported as “low polyreactivity”. In the case of “QVQLVESGGGLVQAVGSLRLSCAASGSTFREYTMGWYRQAPGKERELVAAITNSGGSTYYADSVKGRFTISRDNAKNTVYLQMNSLKPEDTAVYYCAAEGRYFYFTVKMDYWGQGTQVTVSS”, the “polyreactivity (PSR sort gate)” value is reported as “low polyreactivity”. For “QVQLVESGGGLVQAVGSLRLSCAASGSTFWFNAMGWYRQAPGKERELVAAIPSRGGYTYYADSVKGRFTISRDNAKNTVYLQMNSLKPEDTAVYYCAADYRYSSRKVFHFDYWGQGTQVTVSS”, the “polyreactivity (PSR sort gate)” value was “low polyreactivity”. In the case of “QVQLVESGGGLVQEGASLRLICAASGRTSYRYAMGWNRQAPGKERELVAAISFGGGSTYYADSVKGRFTISRDYAKNTVYLQMNSLKPEDTAVYYCATDRVKYRNIYTDTGFDYWGQGTQVTVSS”, the “polyreactivity (PSR sort gate)” value is reported as “high polyreactivity”. For “QVQLVESGGGLVQEGGSLRLSCAASASIFRYNAMGWYRQAPGKERELVAAITSRDGSTYYADSVKGRFTISRDNAQNTVYFQMNSLKPEDTAVYYCAVQPDSGNYDSGIYDRVGMDYWGQGTQVTVSS”, the “polyreactivity (PSR sort gate)” value was “low polyreactivity”. In the case of “QVQLVESGGGLVQEGGSLRLSCAASGFIFAWYDMGWYRQAPGKERELVAAISYYGGSTYYADSVKGRFTISRDNAKNTVYLQMNSLKPVDTAVYYCIKVSRGGSYGDAFDYWGQGTQVTVSS”, the “polyreactivity (PSR sort gate)” value is reported as “high polyreactivity”. With “QVQLVESGGGLVQEGGSLRLSCAASGFIFRYYAMGWYRQAPGKERELVAAISSSGGSTYYADSVKGRFTISRDNAKNTVYLQMNSLKPEDTAVSYCNAYNYGYIGYGYNYWGQGTQVTVSS” the “polyreactivity (PSR sort gate)” value was “high polyreactivity”. With “QVQLVESGGGLVQEGGSLRLSCAASGFTFVSNAMGWYRQAPGKERELVAAITYSGTRTYYADSVKGRFTISRDNAKTTVYLQMNSLKPEDTAVYYCAARRGYASAYYYWGQGTQVTVSS” the “polyreactivity (PSR sort gate)” value was “high polyreactivity”. In the case of “QVQLVESGGGLVQEGGSLRLSCAASGFTLHVYAMGWYRQAPGKERELVAAISTGGNTNYADSVKGRFTISRDNAKNTVYLQMNSLKPEDTAVYYCNARYTSRRSRRPYYYWGQGTQVTVSS”, the “polyreactivity (PSR sort gate)” value is reported as “high polyreactivity”. For “QVQLVESGGGLVQEGGSLRLSCAASGITFAFYTMGRYRQAPGKERELVAAISYSGGRTYYADSVKGRFTISRDNAMNTVYLQMNSLKAEDTAVYYCAVETWWDYDYWGQGTQVTVSS”, the “polyreactivity (PSR sort gate)” value was “high polyreactivity”. In the case of “QVQLVESGGGLVQEGGSLRLSCAASGITFSVYTMGRYRQAPGKERELVASITRTGGSTYYADSVKGRFTISRDNAKNTVYLQMNSLNPEDTAVYYCAARRTVVTGRYYWGQGTQVTVSS”, the “polyreactivity (PSR sort gate)” value is reported as “high polyreactivity”. With “QVQLVESGGGLVQEGGSLRLSCAASGLIFGRYAMGWYRQAPGKERELVAAISSSGVRTYYADSVKGRFTISRDNAKNTVYLQMNSLKPEDTAVYYCAAAYWSSRDDTVIKRYYWGQGTQVTVSS” the “polyreactivity (PSR sort gate)” value was “high polyreactivity”. In the case of “QVQLVESGGGLVQEGGSLRLSCAASGLTFLNNAMGWYRPAPGKERELVAAISDGGSTNYADSVKGRFTISRDNAKNTVYLQMNSMKRDDTAVYYCAAVYTSASYGSWGQGTQVTVSS”, the “polyreactivity (PSR sort gate)” value is reported as “low polyreactivity”. For “QVQLVESGGGLVQEGGSLRLSCAASGNTFKYYSMGWYRQAPGKERELVAAITWNGARTYYADSVKGRFTISRDNAKNTVYLQMNSLKPEDTAVYYCNARQGYRFDYWGQGTQVTVSS”, the “polyreactivity (PSR sort gate)” value was “high polyreactivity”. In the case of “QVQLVESGGGLVQEGGSLRLSCAASGRIFGVNAMGWYRQAPGKERELVAAIFSGGSTYYADSVKGRFTISRDNAKNTVYLQMNSLKPEDTAVYYCAARFARYDWSMYYWGQGTQVTVSS”, the “polyreactivity (PSR sort gate)” value is reported as “low polyreactivity”.
